This passage reports Kd results from article PMC11261467.

Holding throughout (assay): SPR
Experiment [1] concerns the target His-tagged CSL040/LHR-ABC (human) (UniProt P17927).
The target of experiment [2] is plasma-derived C3b (unfractionated) (human) (UniProt P01024).
Experiment [3] deals with plasma-derived C4b (unfractionated) (human) (UniProt P0C0L4).

For “plasma-derived C3b dimer (purified by size-exclusion chromatography) (from UniProt P01024 749-1663; P01024 749-1663) (complex)”, the Kd in experiment [1] was determined as 3.8 nM.
Turning to “LHR-AB (soluble human CR1 truncation), untagged (from UniProt P17927 42-939) (domain or fragment)”, the Kd in experiment [2] turned out to be 305 nM; in experiment [3], 530 nM.
Turning to “LHR-A (soluble human CR1 truncation), untagged (from UniProt P17927 42-489) (domain or fragment)”, the Kd in experiment [3] is 1230 nM.
In experiment [1], “plasma-derived C3b (unfractionated) (from UniProt P01024 749-1663; P01024 749-1663) (ligand)” registered an equilibrium dissociation constant (Kd) of 134 nM.
Consider “LHR-B (soluble human CR1 truncation), untagged (from UniProt P17927 490-939) (domain or fragment)”, for which the values for the Kd in experiment [2] and in experiment [3] were 337 nM and 1910 nM, respectively.
As for “LHR-AA (soluble human CR1 variant with two tandem LHR-A domains), untagged (from UniProt P17927 42-489; P17927 42-489)”, the dissociation constant Kd in experiment [3] was 1540 nM.
As to “LHR-BC (soluble human CR1 truncation), untagged (from UniProt P17927 490-1392) (domain or fragment)”, the values for the Kd in experiment [2] and in experiment [3] were 78.2 nM and 581 nM, respectively.
